Measured values from paper PMC7749050 (ACS synthetic biology, 2020).
Each block holds one molecule with its values, some of them ahead of it.

Experiments:
Experiment in all cases: two-hybrid
[1] = target: Rhodopseudomonas palustris BphP1 (RpBphP1), mammalian two-hybrid construct (Rhodopseudomonas palustris)
[2] = target: T1, GAL4-BD-DrBphP, mammalian two-hybrid bait (Deinococcus radiodurans (strain not …, UniProt Q9RZA4))
[3] = target: T1, GAL4-BD-DrBphP, mammalian two-hybrid …; remark: listed apart in the source

T1 sequence (Q9RZA4 whole entry, looked up, the tested form may be a part): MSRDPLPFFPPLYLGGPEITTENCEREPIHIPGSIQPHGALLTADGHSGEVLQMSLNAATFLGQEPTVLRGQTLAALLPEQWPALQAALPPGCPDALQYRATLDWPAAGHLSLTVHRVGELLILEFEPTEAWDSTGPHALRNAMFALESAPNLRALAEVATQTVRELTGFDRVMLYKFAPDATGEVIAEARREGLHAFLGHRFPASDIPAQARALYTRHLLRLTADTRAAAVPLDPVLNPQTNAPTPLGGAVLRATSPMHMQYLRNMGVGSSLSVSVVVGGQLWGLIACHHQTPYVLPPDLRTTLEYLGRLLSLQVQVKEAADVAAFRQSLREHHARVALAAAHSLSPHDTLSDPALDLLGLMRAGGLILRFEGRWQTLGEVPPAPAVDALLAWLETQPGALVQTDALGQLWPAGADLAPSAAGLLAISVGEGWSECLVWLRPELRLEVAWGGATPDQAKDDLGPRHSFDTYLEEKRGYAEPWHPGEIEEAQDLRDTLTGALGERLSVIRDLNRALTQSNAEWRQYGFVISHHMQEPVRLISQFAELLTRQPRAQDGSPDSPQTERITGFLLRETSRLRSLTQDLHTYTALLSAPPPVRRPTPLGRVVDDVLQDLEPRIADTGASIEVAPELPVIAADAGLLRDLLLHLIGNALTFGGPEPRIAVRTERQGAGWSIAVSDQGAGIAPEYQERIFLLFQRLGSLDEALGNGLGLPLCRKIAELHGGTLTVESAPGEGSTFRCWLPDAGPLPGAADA

- fold increase of luciferase expression, 775-nm light over dark [1]: 2.95 fold
Molecule: PpsR2, mammalian two-hybrid construct (natural protein)

- fold increase of GFP level, 654-nm light over dark [2]: ~44 fold
- fold increase of luciferase expression, 654-nm light over dark [3]: ~19.5 fold
B1: LDB-3-p65, mammalian two-hybrid prey (VHH)
VHH: EVQLQASGGGFVQPGGSLRLSCAASGFTWDHYIMGWFRQAPGKEREFVSAISENGDAWNYYADSVKGRFTISRDNSKNTVYLQMNSLRAEDTATYYCAIGFDVPSGRSWQGSHFWMYWGQGTQVTVSS

- fold increase of GFP level, 654-nm light over dark [2]: ~39 fold
- fold increase of luciferase expression, 654-nm light over dark [3]: ~19.1 fold
B2: LDB-14-p65, mammalian two-hybrid prey (VHH)
VHH: EVQLQASGGGFVQPGGSLRLSCAASGTTSRWESMGWFRQAPGKEREFVSAISWQNNSVPYYADSVKGRFTISRDNSKNTVYLQMNSLRAEDTATYYCAAQHNFLGHRYWGQGTQVTVSS
